Experiment: soluble on expression in E. coli; label from the status in PepcDB or PDB records

Sequence	soluble on expression in E. coli
MLTSRALRIPRKPFVDLDYARHMPSAYVERTKRTVPRKVFGDRFGAPDIKMYYVHPDDYVPSHRRPWEDKQISSHLHRSDKYFSAQLSNQYFNLRRPKSERMADTEWTFFPGDLVQVMVGKDKGRQGLVLTTSRDSSDVIVDGLHTKLGEDMEGSEKLGVDKTLRWQEQPLSVSKKQVMLVDPNDEQPCEARWQLNGPGDEYIRVSTRSGYEIPIPSQAKVTYEYLQPENYIEVEGKDTPADAVLERTYMPKVASFEQEIMEEMGIKEERTPKPTFWY	not soluble
MSALRHIAVIDIGKTNAKVALVDLATSSEVALRRMANAPVRQAPYPHHDVESLWTFILDSLAGLNCEQRIDAISITTHGATGALVDASGELVLPVLDYEFDGPNGLAADYDAIRPPFAETGTPRLPLGLNLGAQFFWQQKRFPAAFAHATAILMYPQYWALRLTGVAANEVTSLGCHTDLWNPWTAGFSSLVDRLDWRGLMAPVRPARNRLGPILPALAARTGLDARTPVFCGLHDSNASLLPHLLSDAPPFSVVSTGTWVVSMAVGGREIALDAARDTLVNVNALGDPLPSARFMGGREFSVLTEGQPETWSEDDIGAVLARKTLLLPSTQQGSGPFPHQAATWLDAESINDGQRFAAVSFYLALMTATCLDLIGADGPTTVEGPFARNQLFVGMLAASTGRAVVASEATTGTSIGAALLASDQVMAYGKGERIEPPTDRAWADYANAWRVAVEARGLEHHHHHH	not soluble
LPAMEIECRITGTLNGVEFELVGGGEGTPEQGRMTNKMKSTKGALTFSPYLLSHVMGYGFYHFGTYPSGYENPFLHAINNGGYTNTRIEKYEDGGVLHVSFSYRYEAGRVIGDFKVMGTGFPEDSVIFTDKIIRSNATVEHLHPMGDNDLDGSFTRTFSLRDGGYYSSVVDSHMHFKSAIHPSILQNGGPMFAFRRVEEDHSNTELGIVEYQHAFKTPD	soluble
MGSDKIHHHHHHMDQAQIEIQVLSSLSQIAASDWDACACPEAEAGGRPLDPFTTHRFLSALEDSGSVGQGTGWQPQYLTCYLDGQLVACAPLYAKGHSQGEYIFDHNWAHAYERAGGRYYPKLQVAVPFTPATGRRFLVRPGYEEIGISALLQGAVQLASDNQLSSLHVTFCTSDEAEAGREIGLMSRSSQQFHWLNDGYAGFEAFLAALSSRKRKNIRKERKQAQGFGGSIETYTGADLRSEHWDAFWRFYQDTGSRKWGTPYLTRAFFEIIHDTMAEDMALVLAERDGVPVAGALNFIGAKTLYGRYWGCMEHHPCLHFELCYYQAIDLAIEMGLDRVEAGAQGEHKLARGYLPTETHSLHWVADPGFRAAIEQYLEAERAAVGEEIEILTSYGPFKKTHVEEQE	not soluble
MGSDKIHHHHHHMTARTSALAIEIDRQDRSPIYLQICERFRTAIAAGHLRPGDRVPALRGLALQLNTARGTVEMAYTILVDEGYLQMRGAAGTFVSASLPASVTRPARGGDREQPPAREQGATKSSHALRGRQPATRQLAIAVAMSGEPKLLQPGLPALDAFPRKLWNRLVSRCARSGERAMLAYPDPVGYRALREHIATYLGLSRGVACVPEQVFITAGYRATLELVLRSLASPNDRMWFEDPGYLLARGFLAEVGVNLVPVPIDSEGIDVDRGIALDPLARFALVTPSHQAPLGYTLSLARRMALLDWAAKGSSWIIEDDYDSEFRYVGRPLPALKSLDKDDRVIYCGTFSKVMFPGLRLAYAVVPERAVERVERVACSMNAGSPTLLQAAVADFIEQGHFARHVKRMRALYGQRRTLIAHALEQAFGERMLVELPHGGIQFAVQFAEGPDGPVDDVAVAARARDAGLAVVPLSIWYANGRTRRTPRGLVMGFANVTDAREALRLARTLYGCLTG	not soluble
MLTMKFLVPVDFSEITNPLLRTVKRVGEKVDCEVHLLHVIPPVLYLPYPETMGVSVIDIELLEKLEDEKKAEAKEKLKALEEFLKPVKARSHVDVGDPADVILDYEEKLNPDMVFLGGHKKGLIEKLLIGSTTEKVVKHGKKSDFVIKGSEVEFRKKVVIAYDFSKTAQKTAEFALKFLKNFKVSVEIVHVHESIEMPLIEKLKHKIEKEFSEEKKKILNELKGRFEEEGIKTEVKFLEGEDAVDVISSYVNETPEVELLIIGSKGLSGLKKLILGRTATKLLGKVNKPILIYKVQE	soluble
MGSDKIHHHHHHMAFKQRREYLFLYTVKDANPNGDPLNENHPRYDGDTAQAMASDVRVKRTTRDEWVRSGEIVFVDGEPKSLKTRFEELKKITGKSDAREIMKQCLDVRLFGVTFALGKEAFAWTGPVQFKWGRSLHSASFEFVQGTAAFATERGGADNRQRSFRNEYLVPFALMGVYAIANQYASQYTDAADEDLQRMLDGLWQGTDNLITRSKNEHKSRLLIEITYKEDFNGKIGALDDKVTLLDREGKVMDREKQKALRSLQEVSLDIGALLKSMELKQEQIAGIRVITDGEINIIQEEQLKGISSIEVR	not soluble
MKEALEAALREILGPGEVVALRRLPGGASKEAWAVDYRTGEALHPLFLRRAGGGVIYSKTLALAEEFRLLQVAWAHGVKVPEPLHYFPDLEGREAFLMRRLEGETIGARVVRRPELARARETLPQAMAEELAKIHALSPDEVPFLQPPSLPSWRPALKKACRDLNALGKPHPALKWGMRWLLTHPPRELPPVVVHGDFRVGNLLVNGEGLVAVLDWEFAHLGDPREDLAWPLVRAWRFGEDGKRLGGVGEVGPFLERYNALTGRDIAEEELFWWEVLGNVRWGLGALKQARRHLRGEERSVELAVLGRLASEMEYEVLHLLERYG	soluble
MSLAKTVEEINQKIREGNVVVVTAAEMKDIVEELGPEKAAKEVDVVTTGTFGAMCSSGAFFNFGHADPPIKMQRVWMNDVEAYTGIAAVDAYLGVTQLSESVEEYGGSHVIEELVKGREVELKATAYGTDCYPRKEIVTEVSLEDVNQAVMVNPRNAYQRYNAATNSSNKLLRTYMGTLLPNFGNVTFAGTGEISPLNNDPEYRTIGIGTRIFLCGAKGYVIGEGTQHAPPYGTLMVKGNLKEMKPEYMKAAYFPGYGATLFVGIGIPIPILDAEMAKFTAVRNSEIETKILDFGVARRDRPVVRKVTYEELISGRVEINGEEVRVSPLSSFYMAEKIMKELKRQIERGEFLLTAPVDRIPTKEVFKPMRQREVKVVKSVMVEAYTISPETAIEEAARIMMDKGINHIPVVEEGRLVGIITSWDIAKAVARNRKGAVKSIMTRNVIYTHPDEPVEVAARKMEQNNISALPVVDSRKRVLGIVTSEDLSKLIAREGHHHHHH	soluble
MGSDKIHHHHHHMHSAALLQKVDELPRLPKAIAELLDVVNNEDSTVKAVSEKLSHDPVLSARVLRLANSARFGCSREVGTIDDAVVRLGMQTLRTLVIASAVVGAVPKVEGFDLADFWGNTFEVAIICQELAKRLGTLPEEAFTCGILHSIGELLIVNGDPAVAATISAAVADGADRNLMEKELLGYDNAEIGALLAQSWKFTPHLVKGIQFQNHPKSAEPYSKLAGMLAMAKQIAADWDKIPDDERTSWLAQINILAGIKVDLGGLAEKLAKMHGQGMEMGKQLA	not soluble
MSSKEIICQGEELFRLIPQRPPMVMIDRFYGIEENTSWSGLTVTTDNLFCRDGVLQETGIIEHIAQSAAARVGYIYMLRKEPVPLGFIGSVEKMKLFRLPSAGAELYTGITIVQEVFDITLITAEVKENDELLAECRMKIYLKKELEHHHHHH	soluble
MNIVITGGTGLIGRHLIPRLLELGHQITVVTRNPQKASSVLGPRVTLWQGLADQSNLNGVDAVINLAGEPIADKRWTHEQKERLCQSRWNITQKLVDLINASDTPPSVLISGSATGYYGDLGEVVVTEEEPPHNEFTHKLCARWEEIACRAQSDKTRVCLLRTGVVLAPDGGILGKMLPPFRLGLGGPIGSGRQYLAWIHIDDMVNGILWLLDNELRGPFNMVSPYPVRNEQFAHALGHALHRPAILRVPATAIRLLMGESSVLVLGGQRALPKRLEEAGFAFRWYDLEEALADVVR	soluble
HHHGIRMTRISREMMKELLSVYFIMGSNNTKADPVTVVQKALKGGATLYQFREKGGDALTGEARIKFAEKAQAACREAGVPFIVNDDVELALNLKADGIHIGQEDANAKEVRAAIGDMILGVAAHTMSEVKQAEEDGADYVGLGPIYPTETKKDTRAVQGVSLIEAVRRQGISIPIVGIGGITIDNAAPVIQAGADGVSMISAISQAEDPESAARKFREEIQTYKTGR	soluble

Reference: the DeepSol protein solubility set
